Experimental data taken from the nanobody polyreactivity screen of Harvey et al. (2022).

Assay: yeast display, Sf9 membrane polyspecificity reagent, FACS + sequencing; frameworks hold sequencing errors
Summary of the method: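 A nanobody's polyreactivity label depends on the gate it was sorted from. Yeast display cells were stained with 10% biotinylated, detergent-solubilized Sf9 membrane reagent for 1 hour at 4 °C, enriched on streptavidin microbeads and sorted by FACS. The low and high (top ~1%) gates were set on anti-HA fluorescence for expression and streptavidin fluorescence for reagent binding.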

| Sequence | polyreactivity (PSR sort gate) |
| --- | --- |
| QVQLVESGGGLVQAGGSLRLSCAASGRIFYVYAMGGYRQAPGKERELVAGITSGGSTTYADSVKGRFTISRDNAKNTVYLQMNSLKPEDTAVYYCAALQRQSYWTYGYWGHGTQVTVSS | high polyreactivity |
| QVQLVESGGGLVQAGGSLRLSCAASGRIFYWNAMGCYRQAPGKERELVADISTGGSTYYADSVKGRFTISRDNAKNTVYLQMNRLKPEDTAVYYCAVVYVSLWPSATDWSGFGYWGQGTQVTVSS | low polyreactivity |
| QVQLVESGGGLVQAGGSLRLSCAASGRIFYWNTMGWYRQAPGKEREFVAAITYGGGRTYYADSVKGRFTISRDNAKNTVYLQMNSLKPEDTAVYYCARRIPTLYLDYDYCGQGTQVTVSS | high polyreactivity |
| QVQLVESGGGLVQAGGSLRLSCAASGRIFYWYAMAWYRQAPGKERELVAAITSGGSTYYADSVKGRFTISRDNAKNTVYLQMNSLKPEDTAVYYCAADLYYWGDYDYWGQGTQVTVSS | low polyreactivity |
| QVQLVESGGGLVQAGGSLRLSCAASGRIFYWYAMGWYRQAPGKERELVAAISSTGRTKYADSVKGRFTISRDNAKNTVDLQMNSLKPEDTAVYYCAKRRAAVNGRSDYYYWGQGTQVTVSS | high polyreactivity |
| QVQLVESGGGLVQAGGSLRLSCAASGRIFYYAMGWYRQAPGKERELVAVITYSGGNTYYADSVKGRFTISRDNAKNTVYLQMNSLKPEDTAVYYCAKAVSTKISRYYHYYKHYDYWGQGTQVTVSS | low polyreactivity |
| QVQLVESGGGLVQAGGSLRLSCAASGRIFYYNAIGWYRQAPGKERELVATITRAGGTYYADSVKGRFTISRDNAKNTVYLQMNSLKPEDTAVYYCAKRHPIVDDYKGDYWGQGTQVTVSS | low polyreactivity |
| QVQLVESGGGLVQAGGSLRLSCAASGRIFYYNAMGWYRQAPGKERELVAAINIGGGTKYADSVKGRFTISRDNAKNTVYLQMNSLKPEDTAVYYCAAGIKRYLSYYTRYGYWGQGTQVTVSS | high polyreactivity |
| QVQLVESGGGLVQAGGSLRLSCAASGRIFYYNAMGWYRQAPGKERELVAAISWDGGSTYYADSVKGRFTISRDNAKNTVYLQMNSLKAEDTAVYYCAVDLYGTWYPTWFNYWGQGTQVTVSS | low polyreactivity |
| QVQLVESGGGLVQAGGSLRLSCAASGRIFYYNAMGWYRQAPGKERELVAAISYRGASTYYADSVKGRFTISRDNAKNTVYLQMNSLKPEDTAVYYCAAVTISKGFYPYDYWGQGTQVTVSS | high polyreactivity |
| QVQLVESGGGLVQAGGSLRLSCAASGRIFYYNAMGWYRQAPGKERELVATITGSGGSTYYADSVKGRFTISRDNAKNTVYLQMNSLKPEDTAVYYCNATRWYYDFYKLDYWGQGTQVTVSS | low polyreactivity |
| QVQLVESGGGLVQAGGSLRLSCAASGRIFYYNDLGWYRQAPGKERELVAAISGSGGSTYYADSVKGRFTISRDNAKNTVYLQMNSLKPEDTAVYYCSYYYWGQGTQVTVSS | low polyreactivity |
| QVQLVESGGGLVQAGGSLRLSCAASGRIFYYNGMGWYRQAPGKERELVASIPRTSGRTFYADSVKGRFTISRDKAKNTVYLQMNSLKPEDTAVYYCAAVGSRYVLGEYGYWGQGTQVTVSS | high polyreactivity |
| QVQLVESGGGLVQAGGSLRLSCAASGRIFYYNTMGWYRQAPGKEREFVAAITGSGGITYYADSVKGRFTISRDNAKNTVYLQMNSLKPEDTAVYYCAARTRYSIYRYYYWGQGTQVTVSS | high polyreactivity |
| QVQLVESGGGLVQAGGSLRLSCAASGRIFYYNTMGWYRQAPGKERELVAAITTNGGSTYYADSVKGRFTISRDNAKNTVYLQMNSLKPEDTAVYYCNRDRYPYYYAYNYWGQGTQVTVSS | low polyreactivity |
| QVQLVESGGGLVQAGGSLRLSCAASGRIFYYYAMGLYRQAPGKERELVAAISGSGGTTYNADSVKGRITISRDHAKNTVYLQMNSLKPEDTAVYYCAEVQYRYAREYYYWGQCTQVTVSS | high polyreactivity |
| QVQLVESGGGLVQAGGSLRLSCAASGRIFYYYAMGWYRQAPGKEREFVADISARGGSTYYADSVKGRFTISRDTAKNTVYLQMNSLKPEDTAVYYCAATTGLYTRYGYWGQGTQVTVSS | high polyreactivity |
| QVQLVESGGGLVQAGGSLRLSCAASGRIFYYYAMGWYRQAPGKEREIVAAISASGGSTYADSVKGRFTISRDNAKNTVYLQMNSLKPEDTAVYYCATVYYYTYAWLDLYGGYTFEYWGQGTQVTVSS | low polyreactivity |
| QVQLVESGGGLVQAGGSLRLSCAASGRIFYYYAMGWYRQAPGKERELVAAITWSGGSTYYADSVKGRFTISRDNAKNTVYLQMNSLKPEDTAVYYCAAEWAYWDEWSGDYYLLGYWGQGTQVTVSS | high polyreactivity |
| QVQLVESGGGLVQAGGSLRLSCAASGRIGRYAMGWYRQAPGKESELVAVITSGDSTYYADSVKGRFTITRDNAKNTVYFQMNSLKPEDTAVYYCAADSYRRWGILFTGNEYDSWGQGTQVTVSS | low polyreactivity |
| QVQLVESGGGLVQAGGSLRLSCAASGRIGYNAMGWYRQAPGKERELVAAISSRGGSTYYADSVKGRFTISRDNAKNTVYLQMNSLKPEDTAVYYCNADYEARTRLGEYDYWGQGTQVTVSS | high polyreactivity |
| QVQLVESGGGLVQAGGSLRLSCAASGRIHTYAMGWYRQAPGKERELVAAISFSGGSTYYADSVKGRFTISRDNAKNTVYLQMNSLKPEDTAVYYCAAGGGPNYFVDYGIRYDNWGQGTQVTVSS | low polyreactivity |

| Sequence | polyreactivity (PSR sort gate) |
| --- | --- |
| QVQLVESGGGLVQAGGSLRLSCAASGRIIATNAMGWNRQAPGKERELVATITRSAGRTYYADSVKGRFTISRDNAKNTVYLHMNSLKPEDTAVYYCAASYWYTEPGYREYDYWGQGTQVTVSS | low polyreactivity |
| QVQLVESGGGLVQAGGSLRLSCAASGRIIGKNAMGWYRQAPGKERELVAAIRYNGGRTYYADSVKGRFTISRDNAKNTVYLQMNSLKPEDTAVYYCATRTYRVDPEFGYWGQGTQVTVSS | high polyreactivity |
| QVQLVESGGGLVQAGGSLRLSCAASGRIIGNYAMGWYRPAPGKERELVARISQSGGSTYYADSVKGRFTISRDHAKNSLYLQMNSLKPEDTAVYYCAKRGRYRYDRDNRYEYWGQGTQVNVSS | low polyreactivity |
| QVQLVESGGGLVQAGGSLRLSCAASGRIIGVNAMGWYRQAPGKERELVAAISWSGGSTYYADSVKGRFTISRDNAKNTVYLQMNSLKPEDTAVYYCATTYFYARRPRGDYWGQGTQVTVSS | high polyreactivity |
| QVQLVESGGGLVQAGGSLRLSCAASGRIIGYNAMGWYRQAPGKERELVASIRYSGGSTYYADSVKGRFTISRDNAKNTVYLQMNSLKPEDTAVYYCATRVTYRRRFDYWGQGTQVTVSS | high polyreactivity |
| QVQLVESGGGLVQAGGSLRLSCAASGRIIKPYAMGWYRQAPGKERELVAAISQSGGRTYYADSVKGRFTISRDNAKNTVYLQMNSLKPEDTAVYYCATRYVSSFGLHAQVWSYYYWGQGTQVTVSS | high polyreactivity |
| QVQLVESGGGLVQAGGSLRLSCAASGRIINYNVMGWYRQAPRKEMELVAAITRGGSTYYADSVKVRFTISRDNAKNTVYLQMNILKPEDTEVYYCSADTARRPRSYYYWGQGTQVTVSS | low polyreactivity |
| QVQLVESGGGLVQAGGSLRLSCAASGRIIPYNTMGWYRQAPGKERELVAAISQSDTGTHYADSVKGRFTISRDNAKNTVYLQMNSLKPEDTAVYYCAVDWGYSDDVPYEYWGQGTQVTVSS | low polyreactivity |
| QVQLVESGGGLVQAGGSLRLSCAASGRIIRGYVMGWYRQAPRKEREMVAITIGAGRTYYADSVKGRFTISRDNAKNTVYLQMNSLIPEDTAVYYCAADTYSTSGYYYWGQGTQVTVSS | low polyreactivity |
| QVQLVESGGGLVQAGGSLRLSCAASGRIIRKNTMGWYRQAPGKERELVAAIRWSTTSTYYADSVKGRFTISRDNAKNTVYLQMHSLKPEDTAVYYCAARRRDSYGNIYDYWGQGTQVTVSS | high polyreactivity |
| QVQLVESGGGLVQAGGSLRLSCAASGRIIRWNAMGWYRQAPGKERELVAAITYSSGSTYYADSVKGRFTISRDNAKNTVYLQLNSLKPEDTAVYYCAAYSYGWDYSYDYWGQGTQVNVSS | low polyreactivity |
| QVQLVESGGGLVQAGGSLRLSCAASGRIISAYAMGWYRQAPGKERELVAAITGSGGSTYYADTVKGRFTISRDNAKKTVYLQMNSRKPEDTAVYYCAAKIDYPDARYFPYRYYYWGQGTQVTVSS | high polyreactivity |
| QVQLVESGGGLVQAGGSLRLSCAASGRIISRYAMGWYRQAPGKERELVAAISRRGGSTYYADSVKGRFTISRDNAKKTVYLQMNSLKPEDTAVYYCNADTGNRGYDYWGQGTQVTVSS | high polyreactivity |
| QVQLVESGGGLVQAGGSLRLSCAASGRIISYYAMRWYRQAPGKERELVAAITSAGGTNYADSVKARFTISRDNAKNTVYLQMNSLKPEDTAVYYCAADLYDWPLAWWEYFYWGQGTQVTVSS | low polyreactivity |
| QVQLVESGGGLVQAGGSLRLSCAASGRIIVDNAMGWYRQAPGKERELVAAITNGGSTSYADSVKGRFTISRDNAKNTVYLQMNSLKPEDTAVYYCNADEDLRGYDYWGQGTQVTVSS | low polyreactivity |
| QVQLVESGGGLVQAGGSLRLSCAASGRIIVLYAMGWSRQAPGKERELVASIRSGGSTNYADSVKGRFTISRDNAKNTVYLQMNSLKPEETAVYYCAARPDHKRYDYWGQGTQVTVSS | low polyreactivity |
| QVQLVESGGGLVQAGGSLRLSCAASGRIIYDKAMGWYRQAPGKERELVAAISRSGRTYYADSVKGRFTISRDNAKNTVYLQMNSLKPEDSAVYYCNARTLTVLEFDYWGQGTQVTVSS | low polyreactivity |
| QVQLVESGGGLVQAGGSLRLSCAASGRIIYENAMGWYRQAPGKEREFVAAITGSGGSTYYADSVKGRFTISRDNAKNTVYLQMISLKPEDTEVYYCAAPLSSYWVYIVRYGYDYWGQGTQVTVSS | low polyreactivity |
| QVQLVESGGGLVQAGGSLRLSCAASGRIIYGYAMGWYRQEPGKERELVAAITATYYGDSVKGRFTISRDNAKNTVYLQMNSLKPEDTAVYYCNAYLCPKQPLSPPDPTFEGGYWGQCTQVTVSS | low polyreactivity |
| QVQLVESGGGLVQAGGSLRLSCAASGRIIYNYAMGWYRQAPGKERELVAAITRSGGSTYYADSVKGRFTISRDNAKNTVYLQMNSLKPEDTAVYYCNATRGFGPPYFYWGQGTQVTVSS | high polyreactivity |
| QVQLVESGGGLVQAGGSLRLSCAASGRIIYPYVMGWYRQAHGKERELVAAITRSGDRTYYADSVKGRFTISRDNAKNTVYLQMNSLKPEDTAVYYCAATNVRGVYYWGQGTQVTVSS | high polyreactivity |
